{
  "source": "patent US6566047B1",
  "about": "“Method for identifying neurite-growth promoting agents” (The Regents of the University of Colorado, priority 1998, dated 2003)",
  "key": {"growth cone PLA2": {"tested_on": "growth cone PLA2", "assay": "PLA2 assay in growth cone particles (GCPs)", "format": "biochemical, rat", "details": "GCPs", "description": "Growth Cone Particle (GCP) Isolation. GCPs were prepared as described by Pfenninger et al. (1983) and modified by Lohse et al., Dev. Brain Res., 96:38-96 (1996). Briefly, 18-day fetal brains were homogenized in approximately 8 volumes of 0.32 M sucrose containing 1 mM MgCl2, 2 mM TES buffer, pH 7.3, and 3 μM aprotinin. A low-speed supernatant (1,660 g×15 min) was loaded onto a discontinuous sucrose density gradient With steps of 0.83 M and 2.66 M sucrose containing MgCl2 and TES. The gradients were spun to equilibrium at 242,000 g for 40 min in a vertical rotor (Vti50, Beckman). The GCP fraction at the 0.32/0.83 M sucrose interface was collected and used for the experiments described below.\nAll assays were run in triplicate."}, "MAT-Lu cells": {"tested_on": "MAT-Lu cells", "assay": "Pseudopod morphometry (pseudopod length assay), MAT-Lu cells", "format": "cell-based, rat", "details": "typically 15 min exposure", "description": "Pseudopod Morphometry. To study the effects of various agents on pseudopods on a short-term basis, we measured pseudopod lengths. Cells plated in 35-mm diameter dishes at low density (1×10^4 per dish) were incubated overnight, tie medium was changed, and the experiments were run four hours later. First, cultures were shifted to serum-free medium, which was replaced one hour later by serum-free medium with or without the various agents (thrombin, AA or HETEs). Care was taken to avoid heat and light inactivation of the eicosanoids. Culture dishes were placed on a Zeiss inverted microscope equipped with a heated stage and viewed with a 16×phase contrast objective lens. Randomly selected fields of the cultures, containing generally about 20 cells each, were recorded, digitized and stored in the computer at the onset of the experiment and at different times thereafter.\nIn some cases, individual cells were monitored over different periods of time immediately after introduction of the reagent, either by mixing it into the medium or by applying it locally to one end of the cell. […] Cell morphology was recorded, and the captured images were analyzed with a Power Macintosh computer using NIH Image. Cell process length was measured from the center of the nucleus to the end of the process. […]"}, "cPLA2": {"tested_on": "cPLA2", "assay": "PLA2 activity (14C-AA release) in MAT-Lu cells", "format": "biochemical, rat", "details": "dose-dependent", "quoted_text": "MAT-Lu cells were plated at a density of 0.5×10^6 cells per flask (T-75) and grown as detailed above to approximately 25% confluency. On the day before the experiments, the serum level in the medium was dropped to 1%. Cells were fed with fresh 1% serum-medium 4 hrs prior to harvest. For harvesting, cells were rinsed with Ca^++,Mg^++-free HBSS, covered with 2 ml cold Ca^++-free modified Krebs buffer (220 mM sucrose, 50 mM NaCl, 5 mM KCl, 22 mM HEPES, 10 mM glucose. 1.2 mM NaH2PO4 and 1.2 mM MgCl2, pH 7.3), and placed on ice. Cells were scraped off, pelleted for 5 min at 200 rpm and re-suspended in a minimal volume of Krebs buffer. Aliquots were used to determine protein concentration (Biorad Assay) and phopholipase activity. To measure PLA2 activity 10-12 μg of cell protein was incubated with or without thrombin for 10 min on ice, ^14C-AA-labeled phospholipid substrate (7 μM. 40-60 mCi/mmol) was added, and the mixture was transferred to 37° for 20 min. The reaction was stopped by adding cold cliloroform/methanol (1:2 v/v). Lipid extraction followed by thin-layer chromatography (Negre-Aminou et al., J Neurochem 67:2599-2608 (1996)) isolated the reaction product (identified by co-migration with AA standard), which was then scraped off the plates and analyzed in a scintillation spectrometer (Beckman). In some experiments, especially those involving ^14C-AA-phosphatidylinositol as substrate, the diacylglycerol-containing band (identified by co-migration of standard) also was scraped and counted in order to measure phospholipase C (PLC) activity."}},
  "data": [
    {"molecule": "BDNF: brain-derived neurotrophic factor (protein, UniProt P23560 19-247, looked up) Neurotrophic factor BDNF …: APMKEANIRGQGGLAYPGVRTHGTLESVNGPKAGSRGLTSLADTFEHVIEELLDEDQKVRPNEENNKDADLYTSRVMLSSQVPLEPPLLFLLEEYKNYLDAANMSMRVRRHSDPARRGELSVCDSISEWVTAADKKTAVDMSGGTVTVLEKVPVSKGQLKQYFYETKCNPMGYTKEGCRGIDKRHWNSQCRTTQSYVRALTMDSKKRIGWRFIRIDTSCVCTLTIKRGR", "values": [
      {"measurement": "activation of growth cone cPLA2/PLA2", "setting": "growth cone PLA2", "result": "did not significantly stimulate PLA2 activity"},
      {"measurement": "net activity (pmol/min/mg protein)", "setting": "growth cone PLA2; Table 3c, substrate PI, BDNF 100, IGF-1 0.75, insulin 1, thrombin 200 nM, control 159 ± 6.2", "result": "164 ± 10.6", "unit": "pmol/min/mg protein"}
    ]},
    {"molecule": "SemaIV: recombinant semaphorin IV, repellent and putative tumor suppressor (protein, UniProt Q13275 19-785, looked up) Semaphorin-3F: SFPTQDHLPATPRVRLSFKELKATGTAHFFNFLLNTTDYRILLKDEDHDRMYVGSKDYVLSLDLHDINREPLIIHWAASPQRIEECVLSGKDVNGECGNFVRLIQPWNRTHLYVCGTGAYNPMCTYVNRGRRAQATPWTQTQAVRGRGSRATDGALRPMPTAPRQDYIFYLEPERLESGKGKCPYDPKLDTASALINEELYAGVYIDFMGTDAAIFRTLGKQTAMRTDQYNSRWLNDPSFIHAELIPDSAERNDDKLYFFFRERSAEAPQSPAVYARIGRICLNDDGGHCCLVNKWSTFLKARLVCSVPGEDGIETHFDELQDVFVQQTQDVRNPVIYAVFTSSGSVFRGSAVCVYSMADIRMVFNGPFAHKEGPNYQWMPFSGKMPYPRPGTCPGGTFTPSMKSTKDYPDEVINFMRSHPLMYQAVYPLQRRPLVVRTGAPYRLTTIAVDQVDAADGRYEVLFLGTDRGTVQKVIVLPKDDQELEELMLEEVEVFKDPAPVKTMTISSKRQQLYVASAVGVTHLSLHRCQAYGAACADCCLARDPYCAWDGQACSRYTASSKRRSRRQDVRHGNPIRQCRGFNSNANKNAVESVQYGVAGSAAFLECQPRSPQATVKWLFQRDPGDRRREIRAEDRFLRTEQGLLLRALQLSDRGLYSCTATENNFKHVVTRVQLHVLGRDAVHAALFPPLSMSAPPPPGAGPPTPPYQELAQLLAQPEVGLIHQYCQGYWRHVPPSPREAPGAPRSPEPQDQKKPRNRRHHPPDT", "values": [
      {"measurement": "effect of agent alone on pseudopod length", "setting": "MAT-Lu cells", "result": "causes pseudopod retraction in MAT-Lu cells"},
      {"measurement": "increase of cPLA2-PE activity", "setting": "cPLA2", "result": "several fold"},
      {"measurement": "activation of growth cone cPLA2/PLA2", "setting": "growth cone PLA2", "result": "dose-dependent activation of growth cone cPLA2"}
    ]}
  ]
}
